Source: article PMC12714136, “14-3-3θ phosphorylation at S232 reduces its interactome and regulates axonal trafficking” (Disease Models & Mechanisms, 2025)

Molecular target: T1, nuclear distribution protein nude-like 1 (M17 neuroblastoma cells) (human (endogenous in SK-N-BE(2)-M17), UniProt Q9GZM8 1-345)
T1 construct: nuclear distribution protein nudE-like 1, endogenous in SK-N-BE(2)-M17 cells; also called NDEL1; source: endogenous, SK-N-BE(2)-M17 neuroblastoma cells (fixed cells)
T1 sequence (looked up): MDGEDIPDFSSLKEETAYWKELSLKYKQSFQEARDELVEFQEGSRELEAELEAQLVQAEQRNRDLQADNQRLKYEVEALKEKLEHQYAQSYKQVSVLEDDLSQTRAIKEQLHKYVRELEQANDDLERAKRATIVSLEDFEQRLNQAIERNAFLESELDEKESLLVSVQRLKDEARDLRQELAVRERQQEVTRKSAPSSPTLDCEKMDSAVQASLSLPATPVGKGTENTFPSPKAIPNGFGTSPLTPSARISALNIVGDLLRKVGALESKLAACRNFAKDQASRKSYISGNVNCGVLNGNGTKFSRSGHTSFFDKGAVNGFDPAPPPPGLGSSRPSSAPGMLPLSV
Experiment: proximity ligation; fixed M17 cells stably expressing V5-tagged 14-3-3θ S232A or S232D; anti-V5 with anti-NDEL1 or anti-BCR antibody; DuoLink probes; objects per area, normalised
Settings: partners not purified

fold PLA signal against S232D: ~2 fold
B1: V5-tagged 14-3-3θ S232A (natural protein, UniProt P27348 1-245, looked up)
chain: MEKTELIQKAKLAEQAERYDDMATCMKAVTEQGAELSNEERNLLSVAYKNVVGGRRSAWRVISSIEQKTDTSDKKLQLIKDYREKVESELRSICTTVLELLDKYLIANATNPESKVFYLKMKGDYFRYLAEVACGDDRKQTIDNSQGAYQEAFDISKKEMQPTHPIRLGLALNFSVFYYEILNNPELACTLAKTAFDEAIAELDTLNEDSYKDSTLIMQLLRDNLTLWTSDAAGEECDAAEGAEN
notes: 14-3-3 protein theta with S232A; also called V5-14-3-3θ phospho-mutant S232A; source: SK-N-BE(2)-M17 cells, stably transfected (fixed cells)
